Assay results as given in PMC11574021, “CEP192 localises mitotic Aurora-A activity by priming its interaction with TPX2” (The EMBO Journal, 2024).
Numbering of substitutions follows the chain as printed. Numbers in names are those of the source. Where no end group is shown, it is not given here. FAM = 5(6)-carboxyfluorescein

How the values were obtained:
Aurora-A = conditions: cited from earlier work; for effect on Aurora-A activity: ADP-Glo based assay, ref Park et al. 2023 Figure 3 F-H
Description: page 22: have elected to test PLK1 localization. In the absence of a direct test, they could nevertheless refer to the observations of Joukov et al. We find that PLK1 localisation is normal in ∆11 cells and have include d this new data (Fig. EV8) -Figure 5A-B: The scheme could be made clearer. Why is CEP192 depicted in blue and grey in panel A, green and grey in panel B (grey in scheme of excision sites). Why not use color consistently? […] We have ch ...

[1] = molecular target: FAM-CEP192 501–533 (human) (UniProt Q8TEP8); test: fluorescence polarisation; direct fluorescence anisotropy: Aurora-A diluted across the plate, 50 nM tracer FAM-CEP192 501–533; 25 mM HEPES pH 7.5, 150 mM NaCl, 2 mM DTT, 5 mM MgCl2, 0.01% Tween 20; 1 h at room temperature
human CEP192 468–533 = molecular target: T1, human CEP192 468–533 (human, UniProt Q8TEP8 468-533); test: ITC; 250 μM Aurora-A in the syringe, 25 μM CEP192 construct in the cell; 25 °C; 20 mM tris pH 7.5, 200 mM NaCl, 10% glycerol, 5 mM MgCl2
T1 construct: also called CEP192_(506-527_F); source: E. coli B834 RIL, purified (HisTrap, TEV cleavage, SEC); for crystallisation co-expressed with Aurora-A^M7KD and co-purified; not shown: His6, N-terminal, cleaved; SUMO, N-terminal, cleaved
T1 sequence (looked up): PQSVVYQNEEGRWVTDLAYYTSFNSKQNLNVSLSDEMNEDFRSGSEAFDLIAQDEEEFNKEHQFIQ

[2] = molecular target: T2, Aurora-A^CAKD (Aurora-A kinase domain, aa 122–403 C290A, C393A), unphosphorylated (human, UniProt O14965 122-403, C290A | C393A); test: fluorescence polarisation; competition: 25 μM Aurora-A kinase domain preincubated with 100 nM FAM-TACC3 522-536, CEP192 competitor serially diluted; 25 mM HEPES pH 7.5, 150 mM NaCl, 2 mM DTT, 5 mM MgCl2, 0.01% Tween 20; conditions: both partners purified
T2 construct: Aurora-A kinase domain, human, residues 122-403, variant lacking surface cysteines; also called Aurora-A 122–403 C290A C393A; unphosphorylated Aurora-A^CAKD; source: E. coli RIL, co-expressed with lambda phosphatase, purified (HisTrap, TEV cleavage, SEC); not shown: His6, N-terminal, cleaved
T2 sequence (looked up): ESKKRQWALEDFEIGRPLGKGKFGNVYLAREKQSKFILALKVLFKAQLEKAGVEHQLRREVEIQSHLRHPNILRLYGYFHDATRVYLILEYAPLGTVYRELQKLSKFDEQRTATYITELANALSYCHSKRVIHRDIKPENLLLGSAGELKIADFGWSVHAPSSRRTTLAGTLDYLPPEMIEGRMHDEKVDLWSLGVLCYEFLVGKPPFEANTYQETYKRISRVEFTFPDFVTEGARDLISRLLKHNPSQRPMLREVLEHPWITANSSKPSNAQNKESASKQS

[3] = molecular target: T3, unphosphorylated Aurora-A CAKD (Homo sapiens, UniProt O14965, C290A/C393A); test: Fluorescence anisotropy competition with FAM-CEP192 501-533, unphosphorylated Aurora-A; assay type: binding; conditions: competition with 100 nM FAM-CEP192 501-533, 10 μM unphosphorylated Aurora-A CAKD, n = 3
T3 construct: 10 μM Aurora-A kinase domain (phosphorylated or unphosphorylated C290A C393A 122–403); His (N, cleaved yes); made in house; host or cells: E. coli RIL, co-expressed with lambda phosphatase
T3 sequence (O14965 122-403 C290A/C393A): T2 sequence (looked up)
Description: (§1) Assays were performed in 25 mM HEPES pH 7.5, 150 mM NaCl, 2 mM DTT, 5 mM MgCl2, 0.01% Tween 20. For CEP192 and TPX2 competition assays 10 μM Aurora-A kinase domain (phosphorylated or unphosphorylated C290A C393A 122–403) was preincubated on ice with 100 nM FAM-TPX2 7-43 or 100 nM FAM-CEP192 501–533. For TACC3 competition, due to weaker binding, 25 μM Aurora-A kinase domain (phosphorylated or unphosphorylated C290A C393A 122–403) was preincubated with 100 nM FAM-TACC3 522-536. Serial dilutions of competitor (CEP192) were performed in triplicate into a low volume 384-well black plate, before the premixed Aurora-A and tracer were added. A control row included no tracer. Plates were left incubating for 1 h at room temperature before the fluorescence anisotropy was measured using a HIDEX plate reader, with excitation at 485 nm and emission at 535 nm. For direct binding experiments, the assay was performed as above, but the Aurora-A (122–403 C290A C393A or point mutants) was diluted across the plate from high to low concentration, before the addition of 50 nM tracer (FAM-CEP192 501–533) to three replicate rows. Buffer only was added to the control row.
(§2) Fluorescence anisotropy data were processed using Microsoft Excel to calculate intensity and anisotropy using the equation listed in (Yeo et al, [2013]). The IC50 and Kd values were calculated using Origin (OriginLab) where the data fitted to a sigmoid and are summarised in Appendix Table S3.

[4] = molecular target: T4, phosphorylated Aurora-A CAKD (Homo sapiens, UniProt O14965, C290A/C393A); test: Fluorescence anisotropy competition with FAM-CEP192 501-533, phosphorylated Aurora-A; assay type: binding; conditions: competition with 100 nM FAM-CEP192 501-533, 10 μM phosphorylated Aurora-A CAKD, n = 3
T4 construct: 10 nM Aurora-A 122–403 C290A C393A phosphorylated protein; His (N, cleaved yes); made in house; host or cells: E. coli B834 (no lambda phosphatase)
T4 sequence (O14965 122-403 C290A/C393A): T2 sequence (looked up)
Description: as §1, §2

[5] = molecular target: T4, phosphorylated Aurora-A CAKD; test: ADP-Glo kinase assay, kemptide substrate; assay type: biochemical
Description: Reactions were initiated by the addition of 10 μM ATP and 100 μM kemptide as substrate (Cambridge Bioscience Ltd). The reactions were incubated at room temperature for 60 min before 5 μl was transferred into 5 ul of ADP-Glo Reagent (Promega) in a 384-well low volume low binding plate (Greiner Bio-one). After a further 40 min at room temperature, 10 μl of kinase detection reagent was added to each well, and the reaction was allowed to incubate for an additional 30 min. Luminescence was measured on a HIDEX Sense plate reader (HIDEX) using a 1 s integration time. Control data was subtracted from the luminescence and three repeats were averaged before being fitted to a sigmoidal plot using Origin (OriginLab), where IC50 and EC50 values were calculated.

[6] = molecular target: T2, Aurora-A^CAKD (Aurora-A kinase domain, …); test: fluorescence polarisation; competition: 10 μM unphosphorylated Aurora-A^CAKD preincubated with 100 nM FAM-TPX2 7-43, CEP192 competitor serially diluted; 25 mM HEPES pH 7.5, 150 mM NaCl, 2 mM DTT, 5 mM MgCl2, 0.01% Tween 20; conditions: both partners purified

Molecule: CEP192 506-536: short CEP192 fragment used by Park et al 2023 (EDFRSGSEAFDLIAQDEEEFNKEHQFIQEEN; UniProt Q8TEP8 506-536, looked up, fragment)
- effect on Aurora-A activity (Aurora-A): no effect seen

Molecule: Aurora-A^KD F165D (Aurora-A 122–403 F165D) (from UniProt O14965 122-403) (domain or fragment)
- Kd [1]: > 5 µM

Molecule: Aurora-A^KD F165D/R205A (Aurora-A 122–403 R205A F165D) (from UniProt O14965 122-403) (domain or fragment)
- Kd (human CEP192 468–533): 26 µM
- stoichiometry N (human CEP192 468–533): 0.87

Molecule: Aurora-A^KD R205A (Aurora-A 122–403 R205A) (from UniProt O14965 122-403) (domain or fragment)
- Kd [1]: > 5 µM

B1: CEP192 521-757: recombinant GST-tagged CEP192 521-757 with the Xenopus CEP192 binding site (Joukov et al 2010) (protein, UniProt Q8TEP8 521-757, looked up, fragment)
chain: DEEEFNKEHQFIQEENIDAHNTSVALGDTSWGATINYSLLRKSRSTSDLDKDDASYLRLSLGEFFAQRSEALGCLGGGNNVKRPSFGYFIRSPEKREPIALIRKSDVSRGNLEKEMAHLNHDLYSGDLNEQSQAQLSEGSITLQVEAVESTSQVDENDVTLTADKGKTEDTFFMSNKPQRYKDKLPDSGDSMLRISTIASAIAEASVNTDPSQLAAMIKALSNKTRDKTFQEDEKQK
modifications: GST tag
- effect on Maskin/TACC3 phosphorylation by Aurora-A (Aurora-A; Xenopus egg extract, ref Joukov et al. (2010) Figure 4C): lower levels of Maskin/TACC3 phosphorylation
- effect on Aurora-A autophosphorylation at Thr288 and Histone H3 phosphorylation (Aurora-A; recombinant GST-tagged CEP192, western blot, ref Joukov et al. (2010) Figure 3G): prevents autophosphorylation of Aurora-A at Thr288

B2: CEP192 501–533 peptide (unlabelled) (peptide, UniProt Q8TEP8 501-533, looked up)
peptide: SDEMNEDFRSGSEAFDLIAQDEEEFNKEHQFIQ
notes: Probably synthesised as the labelled peptides (Rink amide resin); source: peptide
- IC50 [2]: 29 µM

B3: CEP192 1-995: longer CEP192 fragment used by Park et al 2023 (protein, UniProt Q8TEP8 1-995, looked up, fragment)
chain: MEDFRGIAEESFPSFLTNSLFGNSGILENVTLSSNLGLPVAVSTLARDRSSTDNRYPDIQASYLVEGRFSVPSGSSPGSQSDAEPRERLQLSFQDDDSISRKKSYVESQRLSNALSKQSALQMETAGPEEEPAGATESLQGQDLFNRASPLEQAQDSPIDFHLQSWMNNKEPKIVVLDAGKHFEDKTLKSDLSHTSLLENEKLILPTSLEDSSDDDIDDEMFYDDHLEAYFEQLAIPGMIYEDLEGPEPPEKGFKLPTNGLRQANENGSLNCKFQSENNSSLISLDSHSSETTHKESEESQVICLPGTSNSIGTGDSRRYTDGMLPFSSGTWGTEKEIENLKGIVPDLNSECASKDVLVKTLRAIDVKLNSDNFHDANANRGGFDLTDPVKQGAECPHQNKTVLHMDGCLDTETPTVSIQENVDVASLKPISDSGINFTDAIWSPTCERRTCECHESIEKNKDKTDLPQSVVYQNEEGRWVTDLAYYTSFNSKQNLNVSLSDEMNEDFRSGSEAFDLIAQDEEEFNKEHQFIQEENIDAHNTSVALGDTSWGATINYSLLRKSRSTSDLDKDDASYLRLSLGEFFAQRSEALGCLGGGNNVKRPSFGYFIRSPEKREPIALIRKSDVSRGNLEKEMAHLNHDLYSGDLNEQSQAQLSEGSITLQVEAVESTSQVDENDVTLTADKGKTEDTFFMSNKPQRYKDKLPDSGDSMLRISTIASAIAEASVNTDPSQLAAMIKALSNKTRDKTFQEDEKQKDYSHVRHFLPNDLEKSNGSNALDMEKYLKKTEVSRYESALENFSRASMSDTWDLSLPKEQTTQDIHPVDLSATSVSVRAPEENTAAIVYVENGESENQESFRTINSSNSVTNRENNSAVVDVKTCSIDNKLQDVGNDEKATSISTPSDSYSSVRNPRITSLCLLKDCEEIRDNRENQRQNECVSEISNSEKHVTFENHRIVSPKNSDLKNTSPEHGGRGSEDEQESFRPSTSPLSHSS
- effect on Aurora-A activity (Aurora-A): no effect seen

B4: CEP192 468-533 Y487A/F490A: CEP192 468-533 mutant, two F-pocket residues replaced with alanine (protein)
chain: T1 sequence (looked up) with Y20A, F23A
modifications: left off: His6, N-terminal, cleaved | SUMO, N-terminal, cleaved
notes: CEP192 468-533 mutant, two F-pocket residues replaced with alanine
- IC50 [3]: 6.9 µM
- IC50 [4]: 5.39 µM
- IC50 ([5]; 10 nM phosphorylated Aurora-A CAKD, 10 μM ATP, 100 μM kemptide, 60 min, n = 3): > 1 µM
- effect on Aurora-A kinase activity ([5]; ADP-Glo, phosphorylated Aurora-A CAKD, kemptide, in words): less potent and less complete

B5: CEP192 468-533 F490D/F508D/I518D: CEP192 468-533 variant replacing hydrophobic residues recognising two regions of N-lobe (protein)
chain: T1 sequence (looked up) with F23D, F41D, I51D
modifications: left off: His6, N-terminal, cleaved | SUMO, N-terminal, cleaved
notes: CEP192 468-533 variant replacing hydrophobic residues recognising two regions of N-lobe
- IC50 [3]: > 10 µM
- IC50 [4]: > 10 µM

B6: CEP192 468-533 F508D/I518D/F525D: CEP192 468-533 triple mutant (protein, UniProt Q8TEP8 468-533, looked up, variant F508D I518D F525D)
chain: T1 sequence (looked up) with F41D, I51D, F58D
- IC50 [3]: > 10 µM
- IC50 [4]: > 10 µM

B7: FAM-TACC3 522-536 (peptide, UniProt Q9Y6A5 522-536, looked up)
peptide: {FAM}-EESFRDPAEVLGTGA
notes: Made on Rink amide resin and labelled on resin after synthesis, so N-terminal label and C-terminal amide are likely; source: synthetic peptide
- binding result [2]: binds

B8: FAM-TPX2 7-43 (peptide, UniProt Q9ULW0 7-43, looked up)
peptide: {FAM}-SYSYDAPSDFINFSSLDDEGDTQNIDSWFEEKANLEN
notes: TPX2, residues 7-43; Made on Rink amide resin and labelled on resin after synthesis, so N-terminal label and C-terminal amide are likely; source: synthetic peptide
- binding result [6]: binds
